This data set has as its system Escherichia coli TOP10. The data set can be described thus: shrunken log2 fold change of peptide-encoding DNA abundance (4.5 h post-induction vs induction); higher = less antimicrobial activity (less host growth inhibition). As to conditions: time post-induction: 4.5 h; library: site-saturation at positions 5, 18, 19, 20.
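Note: peptides expressed intracellularly from a pBAD plasmid library in pooled LB shake-flask culture, induced with 0.3% L-arabinose, DNA abundance read by NGS, three biological replicates, DESeq2 with apeglm shrinkage.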

With RRIRMRPPRLPRPRPRPWLGPRP, the “shrunken log2 fold change” value is 0.221.
In the case of RRIRNRPPRLPRPRPRPTVTPRP it was 0.354; in that of RRIRTRPPRLPRPRPRPHTDPRP, -0.401; in that of RRIRVRPPRLPRPRPRPIIHPRP, -0.809.
In the case of RRIRWRPPRLPRPRPRPDEHPRP it was 0.0519; in that of RRIRPRPPRLPRPRPRPQKLPRP, -0.0225; in that of RRIRIRPPRLPRPRPRPILRPRP, -0.484.
As to RRIRTRPPRLPRPRPRPGEDPRP, the “shrunken log2 fold change” value is 0.109.
In the case of RRIRARPPRLPRPRPRPYINPRP it was -0.413; in that of RRIRKRPPRLPRPRPRPPHTPRP, 0.534; in that of RRIRKRPPRLPRPRPRPGYVPRP, -0.0738.
Turning to RRIRTRPPRLPRPRPRPMSSPRP, the “shrunken log2 fold change” value is -0.00458.
To RRIRFRPPRLPRPRPRPQSIPRP belongs 0.0159; to RRIRNRPPRLPRPRPRPVGFPRP, 0.165; to RRIRERPPRLPRPRPRPCPRPRP, -0.021.
In the case of RRIRSRPPRLPRPRPRPFACPRP it was -0.655; in that of RRIRPRPPRLPRPRPRPVNVPRP, -0.326; in that of RRIRARPPRLPRPRPRPNNAPRP, 0.00673.
In the case of RRIRKRPPRLPRPRPRPNTMPRP it was -0.209; in that of RRIRLRPPRLPRPRPRPNYTPRP, -0.91.
With RRIRERPPRLPRPRPRPQNCPRP, the “shrunken log2 fold change” value was -0.0646.
In the case of RRIRVRPPRLPRPRPRPTQNPRP it was 0.693; in that of RRIRWRPPRLPRPRPRPPPVPRP, 0.931.
In the case of RRIRGRPPRLPRPRPRPAGRPRP it was 0.692; in that of RRIRQRPPRLPRPRPRPKAGPRP, 0.0875; in that of RRIRHRPPRLPRPRPRPTWRPRP, 0.381.
To RRIRNRPPRLPRPRPRPNWFPRP belongs -0.145; to RRIRSRPPRLPRPRPRPETLPRP, 0.0893; to RRIRERPPRLPRPRPRPTCVPRP, -0.0193.
For RRIRYRPPRLPRPRPRPFPEPRP, the “shrunken log2 fold change” value is -0.423.
In the case of RRIRNRPPRLPRPRPRPDQAPRP it was -0.01; in that of RRIRMRPPRLPRPRPRPTCKPRP, 2.25.
To RRIRFRPPRLPRPRPRPFMLPRP belongs -0.66; to RRIRHRPPRLPRPRPRPWRRPRP, -0.0609; to RRIRIRPPRLPRPRPRPCTKPRP, -0.151.
In the case of RRIRERPPRLPRPRPRPRWAPRP it was 0.425; in that of RRIRNRPPRLPRPRPRPLISPRP, 3.16.
On to RRIRLRPPRLPRPRPRPHVNPRP, for which the “shrunken log2 fold change” value was -0.105.
As to RRIRDRPPRLPRPRPRPSFGPRP, the “shrunken log2 fold change” value was -0.0644.
In the case of RRIRGRPPRLPRPRPRPTAPPRP it was 0.71; in that of RRIRERPPRLPRPRPRPMQFPRP, -0.248.
To RRIRMRPPRLPRPRPRPEWDPRP belongs 3.48.
In the case of RRIRTRPPRLPRPRPRPCSMPRP it was -0.179; in that of RRIRDRPPRLPRPRPRPMGSPRP, 0.00408; in that of RRIRVRPPRLPRPRPRPGAYPRP, -0.0376.
Consider RRIRYRPPRLPRPRPRPSHDPRP, for which the “shrunken log2 fold change” value was -0.916.
To RRIRMRPPRLPRPRPRPPCDPRP belongs 0.506.
To RRIRSRPPRLPRPRPRPKWWPRP belongs 0.0275; to RRIRMRPPRLPRPRPRPFWEPRP, 0.0748; to RRIRMRPPRLPRPRPRPLAPPRP, 0.735.
To RRIRTRPPRLPRPRPRPKEPPRP belongs -0.00172.
In the case of RRIRHRPPRLPRPRPRPVVLPRP, the “shrunken log2 fold change” value is -0.298.
In the case of RRIRPRPPRLPRPRPRPFMYPRP it was -0.0369; in that of RRIRVRPPRLPRPRPRPSSPPRP, -0.269.
In the case of RRIRARPPRLPRPRPRPTCSPRP it was 0.483; in that of RRIRPRPPRLPRPRPRPWAGPRP, -0.0189; in that of RRIRMRPPRLPRPRPRPWDNPRP, 0.013.
In the case of RRIRSRPPRLPRPRPRPINDPRP it was -0.113; in that of RRIRDRPPRLPRPRPRPFIKPRP, -0.206.
For the sequence RRIRPRPPRLPRPRPRPKGFPRP, the “shrunken log2 fold change” value amounted to 0.0275.
Turning to RRIRLRPPRLPRPRPRPVEHPRP, the “shrunken log2 fold change” value was -0.174.
As for RRIRERPPRLPRPRPRPIKLPRP, the “shrunken log2 fold change” value was -0.481.
To RRIRNRPPRLPRPRPRPLCSPRP belongs -0.0294; to RRIRDRPPRLPRPRPRPACYPRP, -0.142; to RRIRWRPPRLPRPRPRPQAFPRP, 0.0509.
Take RRIRKRPPRLPRPRPRPIVEPRP: the “shrunken log2 fold change” value came out at 0.00111.
On to RRIRQRPPRLPRPRPRPGDVPRP, for which the “shrunken log2 fold change” value is -0.222.
In the case of RRIRNRPPRLPRPRPRPSNEPRP, the “shrunken log2 fold change” value was -0.717.
To RRIRDRPPRLPRPRPRPHYKPRP belongs -0.297; to RRIRARPPRLPRPRPRPIILPRP, -0.262; to RRIRFRPPRLPRPRPRPKPTPRP, 0.879.
As to RRIRTRPPRLPRPRPRPCWIPRP, the “shrunken log2 fold change” value was -0.1.
For the sequence RRIRFRPPRLPRPRPRPIWLPRP, the “shrunken log2 fold change” value was -0.17.
Take RRIRTRPPRLPRPRPRPYLKPRP: the “shrunken log2 fold change” value was -0.27.
In the case of RRIRCRPPRLPRPRPRPASAPRP it was 0.248.
To RRIRLRPPRLPRPRPRPELKPRP belongs 0.0568; to RRIRGRPPRLPRPRPRPDRHPRP, 0.191; to RRIRDRPPRLPRPRPRPPSDPRP, 0.251.
To RRIRYRPPRLPRPRPRPHNRPRP belongs -0.245.
With RRIRKRPPRLPRPRPRPNIFPRP, the “shrunken log2 fold change” value is -0.021.
To RRIRERPPRLPRPRPRPPVGPRP belongs 0.0345; to RRIRARPPRLPRPRPRPAMEPRP, 0.372; to RRIRLRPPRLPRPRPRPENSPRP, 0.000683.
In the case of RRIRKRPPRLPRPRPRPMEKPRP it was -0.0153.
To RRIRLRPPRLPRPRPRPSIEPRP belongs -0.602; to RRIRGRPPRLPRPRPRPEKAPRP, 0.144.
Regarding RRIRCRPPRLPRPRPRPGSQPRP, the “shrunken log2 fold change” value turned out to be 0.0392.
In the case of RRIRQRPPRLPRPRPRPVWSPRP it was -0.176; in that of RRIRERPPRLPRPRPRPLWPPRP, 0.0539.
Consider RRIRERPPRLPRPRPRPSQAPRP, for which the “shrunken log2 fold change” value is 0.151.
In the case of RRIRERPPRLPRPRPRPPQFPRP it was -0.151; in that of RRIRQRPPRLPRPRPRPTNLPRP, -0.0248.
In the case of RRIRYRPPRLPRPRPRPATPPRP it was 0.158; in that of RRIRFRPPRLPRPRPRPSNWPRP, -0.284.
To RRIRCRPPRLPRPRPRPIMFPRP belongs -0.388; to RRIRFRPPRLPRPRPRPTIDPRP, 0.103.
For the sequence RRIRFRPPRLPRPRPRPKFPPRP, the “shrunken log2 fold change” value was -0.0265.
Take RRIRVRPPRLPRPRPRPDFAPRP: the “shrunken log2 fold change” value is 0.147.
In the case of RRIRYRPPRLPRPRPRPSELPRP it was -0.0343; in that of RRIRGRPPRLPRPRPRPFTGPRP, -0.186; in that of RRIRRRPPRLPRPRPRPITKPRP, 0.165.
In the case of RRIRKRPPRLPRPRPRPSLFPRP it was 0.125.
In the case of RRIRDRPPRLPRPRPRPPAVPRP it was 0.312; in that of RRIRCRPPRLPRPRPRPFNPPRP, -0.558; in that of RRIRARPPRLPRPRPRPANTPRP, 0.0584.
As to RRIRSRPPRLPRPRPRPILHPRP, the “shrunken log2 fold change” value was -0.159.
In the case of RRIRHRPPRLPRPRPRPCAIPRP it was -0.303; in that of RRIRCRPPRLPRPRPRPYKRPRP, -0.909.
In the case of RRIRVRPPRLPRPRPRPGPIPRP it was 0.0476.
With RRIRARPPRLPRPRPRPCYLPRP, the “shrunken log2 fold change” value was -0.262.
To RRIRSRPPRLPRPRPRPVPFPRP belongs -0.237; to RRIRWRPPRLPRPRPRPAIRPRP, 0.639; to RRIRSRPPRLPRPRPRPRVWPRP, 0.536.
With RRIRERPPRLPRPRPRPVFNPRP, the “shrunken log2 fold change” value was -0.329.
In the case of RRIRERPPRLPRPRPRPRWFPRP it was 0.0416.
Regarding RRIRKRPPRLPRPRPRPKGQPRP, the “shrunken log2 fold change” value stood at 0.00959.
As to RRIRRRPPRLPRPRPRPQCTPRP, the “shrunken log2 fold change” value is -0.122.
In the case of RRIRNRPPRLPRPRPRPDMVPRP it was 0.00433; in that of RRIRHRPPRLPRPRPRPDAQPRP, 0.0391.
To RRIRYRPPRLPRPRPRPPNFPRP belongs 0.0401.
In the case of RRIRYRPPRLPRPRPRPDRAPRP it was -0.0598; in that of RRIRHRPPRLPRPRPRPHCYPRP, 0.0262.
Regarding RRIRWRPPRLPRPRPRPTEFPRP, the “shrunken log2 fold change” value is -0.0793.
In the case of RRIRSRPPRLPRPRPRPRYRPRP it was -0.276.
To RRIRFRPPRLPRPRPRPVLGPRP belongs -0.127.

(Values after the supplement of paper PMC9112550, “Optimization of the antimicrobial peptide Bac7 by deep mutational scanning” (BMC Biology, 2022).)
